Patent US20150273042
Residue numbers refer to the chain shown, from its start.

Key:
[1] = target: T1, recombinant BP-2a (strain 515) lacking the C-terminal IPQTG sorting signal, BP 30-640
T1 chain: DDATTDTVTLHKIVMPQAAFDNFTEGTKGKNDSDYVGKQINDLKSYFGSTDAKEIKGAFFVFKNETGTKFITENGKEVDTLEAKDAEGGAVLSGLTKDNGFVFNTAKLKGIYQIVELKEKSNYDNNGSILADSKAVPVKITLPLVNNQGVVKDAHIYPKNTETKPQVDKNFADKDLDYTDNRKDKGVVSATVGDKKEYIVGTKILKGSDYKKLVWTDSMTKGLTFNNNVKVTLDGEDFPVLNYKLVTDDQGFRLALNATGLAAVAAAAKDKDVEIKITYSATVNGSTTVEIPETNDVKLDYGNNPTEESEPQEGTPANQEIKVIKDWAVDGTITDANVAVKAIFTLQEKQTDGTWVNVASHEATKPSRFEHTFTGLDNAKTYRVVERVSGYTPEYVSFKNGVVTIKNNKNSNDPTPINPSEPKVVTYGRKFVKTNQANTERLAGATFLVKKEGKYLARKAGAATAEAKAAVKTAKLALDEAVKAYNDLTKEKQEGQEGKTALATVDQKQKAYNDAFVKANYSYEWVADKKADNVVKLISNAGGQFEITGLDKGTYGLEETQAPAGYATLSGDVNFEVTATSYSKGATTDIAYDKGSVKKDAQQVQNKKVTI

[2] = target: recombinant ancillary protein 2 of GBS pilus 2a (AP2-2a)
[3] = target: recombinant BP-2a (strain 515) with Lys189 replaced by alanine
[4] = target: T2, recombinant backbone protein of GBS pilus 2a (BP-2a, GBS59), strain 515, BP 30-649
T2 chain: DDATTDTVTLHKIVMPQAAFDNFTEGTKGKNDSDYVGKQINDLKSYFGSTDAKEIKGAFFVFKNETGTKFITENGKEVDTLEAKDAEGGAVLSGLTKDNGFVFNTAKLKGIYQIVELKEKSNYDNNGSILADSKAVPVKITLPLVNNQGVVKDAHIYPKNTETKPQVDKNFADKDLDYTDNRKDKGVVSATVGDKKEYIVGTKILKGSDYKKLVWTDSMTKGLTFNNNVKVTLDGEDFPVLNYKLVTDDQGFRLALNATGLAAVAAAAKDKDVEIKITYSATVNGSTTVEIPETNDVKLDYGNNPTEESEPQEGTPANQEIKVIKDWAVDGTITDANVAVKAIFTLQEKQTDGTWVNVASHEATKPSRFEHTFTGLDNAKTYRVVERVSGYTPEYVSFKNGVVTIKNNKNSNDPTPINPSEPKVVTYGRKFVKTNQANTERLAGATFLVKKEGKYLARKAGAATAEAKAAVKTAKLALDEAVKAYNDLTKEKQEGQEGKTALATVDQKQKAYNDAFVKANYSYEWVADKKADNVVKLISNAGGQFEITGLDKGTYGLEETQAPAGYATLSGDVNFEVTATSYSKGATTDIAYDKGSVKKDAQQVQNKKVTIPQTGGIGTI

[5] = target: GFP-… (EGFP from pSpeedET with … added at the C-terminus)
[6] = target: T3, backbone protein PI-1 of GBS (GBS 80)
T3 chain: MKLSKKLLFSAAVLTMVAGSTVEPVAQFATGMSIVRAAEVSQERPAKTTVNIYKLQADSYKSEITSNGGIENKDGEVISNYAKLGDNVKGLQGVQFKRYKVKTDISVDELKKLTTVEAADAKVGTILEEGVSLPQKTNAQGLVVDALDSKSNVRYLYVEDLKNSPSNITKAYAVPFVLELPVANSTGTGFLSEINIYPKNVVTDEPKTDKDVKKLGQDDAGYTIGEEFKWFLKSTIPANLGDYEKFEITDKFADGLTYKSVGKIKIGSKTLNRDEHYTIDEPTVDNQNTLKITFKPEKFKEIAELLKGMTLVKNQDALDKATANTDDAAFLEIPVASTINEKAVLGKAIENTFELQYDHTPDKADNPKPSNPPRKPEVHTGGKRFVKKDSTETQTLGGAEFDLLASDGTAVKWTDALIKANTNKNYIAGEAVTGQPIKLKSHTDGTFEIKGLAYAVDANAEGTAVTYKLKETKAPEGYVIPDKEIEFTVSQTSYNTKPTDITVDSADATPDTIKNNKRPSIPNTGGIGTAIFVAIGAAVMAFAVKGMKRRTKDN

[7] = target: pilus protein from Streptococcus pneumoniae (RrgB)
[8] = target: recombinant ancillary protein 1 of GBS pilus 2a (AP1-2a)
[9] = target: synthetic fluorescent peptide carrying the LPXTG sorting motif of PI-1 minor ancillary protein
[10] = target: synthetic fluorescent peptide carrying the LPXTG sorting motif of PI-1 backbone protein
[11] = target: T4, backbone protein of GBS PI-2b (Spb1) expressed from a complementation vector in GBS strain 515Δ2a
T4 chain: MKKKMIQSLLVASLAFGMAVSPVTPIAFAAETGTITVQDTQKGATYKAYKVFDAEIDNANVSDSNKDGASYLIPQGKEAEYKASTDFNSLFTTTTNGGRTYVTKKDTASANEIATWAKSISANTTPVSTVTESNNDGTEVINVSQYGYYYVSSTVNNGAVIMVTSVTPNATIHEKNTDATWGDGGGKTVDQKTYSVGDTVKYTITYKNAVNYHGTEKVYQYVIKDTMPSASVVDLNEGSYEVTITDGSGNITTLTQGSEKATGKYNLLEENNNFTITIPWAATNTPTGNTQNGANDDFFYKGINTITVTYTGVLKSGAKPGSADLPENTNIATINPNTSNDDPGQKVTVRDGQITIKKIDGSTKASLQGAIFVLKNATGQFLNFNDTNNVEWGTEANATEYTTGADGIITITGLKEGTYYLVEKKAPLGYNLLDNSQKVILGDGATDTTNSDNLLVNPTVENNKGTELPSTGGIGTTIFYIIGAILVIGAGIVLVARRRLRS

B1: GBS sortase C1 of PI-2a lid mutant SrtC1Y86A (protein)
chain: ESNNQTQDFERAAKKLSQKEINRRMALAQAYNDSLNNVHLEDPAEKKRIQKGIAEYARMLEVSEKIGIISVPKIGQKLPIFAGSSQEVLSKGAGHLEGTSLPIGGNSTHTVITAHSGIPDKELFSNLKKLKKGDKFYIQNIKETIAYQVDQIKVVTPDNFSDLLVVPGHDYATLLTCTPIMVNTHRLLVRGHRIPYKGPIDEKLIKDGHLNTIYRYLFYISLVIIAWLLWLIKRQRQKNRLSSVRKGIES
in vitro polymerization (HMW polymers on SDS-PAGE) [1]: HMW polymers could not be detected | in vitro polymerization (HMW structures on SDS-PAGE) [2]: some HMW structures were formed | in vitro polymerization (HMW polymers on SDS-PAGE) [3]: HMW polymers could be observed | in vitro polymerization (high-molecular-weight bands on SDS-PAGE) [4]: The typical pili pattern of bands with molecular weights above 260 kDa, visible by SDS-page, could be generated when monomeric r-BP was incubated with rSrtC1Y86A | in vitro polymerization reaction [5]: the SrtC1Y86A mutant was able to polymerise GFP-IPQTG | in vitro polymerization (SDS-PAGE) [6]: FIG. 7 shows that mutant sortase enzymes polymerize pilus proteins from a variety of gram positive bacteria | in vitro polymerization (SDS-PAGE) [7]: FIG. 7 shows that mutant sortase enzymes polymerize pilus proteins from a variety of gram positive bacteria | in vitro polymerization (HMW structures on SDS-PAGE) [8]: some HMW structures were formed

B2: wild-type GBS sortase C1 of PI-2a, recombinant SrtC1 43-292 (protein)
chain: B1 chain with A44Y
in vitro polymerization (high-molecular-weight bands on SDS-PAGE) [4]: showed no formation of high molecular weight bands that could represent pilus polymers

B3: recombinant PI-2b SrtC2 (full-length, strain COH1) in fusion with a His-MBP-tag (protein)
chain: MIRRYSANFLAILGIILVSSGIYWGWYNINQAHQADLTSQHIVKVLDKSITHQVKGSENGELPVKKLDKTDYLGTLDIPNLKLHLPVAANYSFEQLSKTPTRYYGSYLTNNMVICAHNFPYHFDALKNVDMGTDVYFTTTTGQIYHYKISNREIIEPTAIEKVYKTATSDNDWDLSLFTCTKAGVARVLVRCQLIDVKN
FRET assay, cleavage of fluorescent peptide [9]: The PI-2b SrtC1 and SrtC2 enzymes are able to cleave the fluorescent peptides | FRET assay, cleavage of fluorescent peptide [10]: The PI-2b SrtC1 and SrtC2 enzymes are able to cleave the fluorescent peptides

B4: recombinant PI-2b SrtC1 (full-length, strain COH1) in fusion with a His-MBP-tag (protein)
chain: MAYPSLANYWNSFHQSRAIMDYQDRVTHMDENDYKKIINRAKEYNKQFKTSGMKWHMTSQERLDYNSQLAIDKTGNMGYISIPKINIKLPLYHGTSEKVLQTSIGHLEGSSLPIGGDSTHSILSGHRGLPSSRLFSDLDKLKVGDHWTVSILNETYTYQVDQIRTVKPDDLRDLQIVKGKDYQTLVTCTPYGVNTHRLLVRGHRVPNDNGNALVVAEAIQIEPIYIAPFIAIFLTLILLLISLEVTRRARQRKKILKQAMRKEENNDL
FRET assay, cleavage of fluorescent peptide [9]: The PI-2b SrtC1 and SrtC2 enzymes are able to cleave the fluorescent peptides | FRET assay, cleavage of fluorescent peptide [10]: The PI-2b SrtC1 and SrtC2 enzymes are able to cleave the fluorescent peptides

B5: PI-2b SrtC1 expressed from a complementation vector in GBS strain 515Δ2a (protein)
chain: B4 chain
pili polymerisation in complemented GBS 515Δ2a (western blot) [11]: transfection with BP and SrtC1 resulted in the formation of high molecular weight polymers
